Patent US20100174053A1 (published 2010)

Experiments:
soluble CD32B (sCD32B) = target: T1, soluble CD32B (sCD32B) (human, UniProt P31994 43-217, biotin where used as the ELISA probe); test: SPR (BIAcore), receptor immobilised
T1 construct: extracellular domain; also called soluble CD32B ectodomain; sCD32B-biotin
T1 sequence (looked up): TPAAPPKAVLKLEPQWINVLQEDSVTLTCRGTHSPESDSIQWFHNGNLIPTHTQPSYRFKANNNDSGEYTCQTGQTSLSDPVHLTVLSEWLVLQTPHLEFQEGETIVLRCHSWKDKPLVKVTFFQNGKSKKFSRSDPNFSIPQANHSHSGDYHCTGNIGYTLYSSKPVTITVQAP
Method: (§1) (A) Binding to sCD16; (B) Binding to sCD32B and (C) Binding to sCD32A. Diabodies were injected at a concentration of 100 NM, and scFv at a concentration of 200 nM, over receptor surfaces at a flow rate of […] for 60 sec.
(§2) sCD16A, sCD32B or sCD32A (negative control) were immobilized on one of the four flow cells (flow cell 2) of a sensor chip surface through amine coupling chemistry (by modification of carboxymethyl groups with mixture of NHS/EDC) such that about 1000 response units (RU) of either receptor was immobilized on the surface. Following this, the unreacted active esters were “capped off” with an injection of 1M Et-NH2.

sCD32A = target: T2, sCD32A (UniProt P12318 34-217, limits assumed); test: SPR (BIAcore), receptor immobilised
T2 construct: extracellular domain; Negative control surface in SPR; also called control receptor
T2 sequence (looked up): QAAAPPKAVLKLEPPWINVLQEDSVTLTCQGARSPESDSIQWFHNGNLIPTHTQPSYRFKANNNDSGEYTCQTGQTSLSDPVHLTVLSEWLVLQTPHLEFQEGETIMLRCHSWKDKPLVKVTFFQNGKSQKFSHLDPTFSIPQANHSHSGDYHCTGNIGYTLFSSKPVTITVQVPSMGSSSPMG
Method: as §1, §2

sCD32B-Ig = target: T3, sCD32B-Ig (UniProt P31994 43-217); test: sandwich ELISA: sCD32B-Ig coated, diabody, sCD16A-Biotin probe, streptavidin-HRP
T3 construct: extracellular domain; not shown: Ig part of sCD32B-Ig; not described
T3 sequence (looked up): T1 sequence (looked up)
Method: The plate was then incubated at room temperature for 1 hour.

soluble CD16A (sCD16A) = target: T4, soluble CD16A (sCD16A) (human, UniProt P08637 17-208, biotin or HRP conjugate where used as the ELISA probe); test: SPR (BIAcore), receptor immobilised, diabody 6.25-200 nM as analyte, bivalent analyte fit
T4 construct: extracellular domain; Printed only as soluble CD16A; also called hCD16A; hCD16
T4 sequence (P08637 17-208): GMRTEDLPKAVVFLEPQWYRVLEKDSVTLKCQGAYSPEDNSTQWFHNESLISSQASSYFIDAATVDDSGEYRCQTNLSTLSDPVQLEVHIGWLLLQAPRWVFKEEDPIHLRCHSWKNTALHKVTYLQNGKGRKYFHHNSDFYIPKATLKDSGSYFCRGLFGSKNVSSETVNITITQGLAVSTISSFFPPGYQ
Method: Diabodies were injected at concentrations of 6.25-200 nM over receptor surfaces at a flow rate of […] for 180 sec.
as §2

B1: h3G8 covalent monospecific diabody (CMD) (other)
chain: DIVMTQSPDSLAVSLGERATINCKASQSVDFDGDSFMNWYQQKPGQPPKLLIYTTSNLESGVPDRFSGSGSGTDFTLTISSLQAEDVAVYYCQQSNEDPYTFGQGTKLEIKGGGSGGGGQVTLRESGPALVKPTQTLTLTCTFSGFSLSTSGMGVGWIRQPPGKALEWLAHIWWDDDKRYNPALKSRLTISKDTSKNQVVLTMTNMDPVDTATYYCAQINPAWFAYWGQGTLVTVSSLGGC
notes: Covalent homodimer of construct 3; also called h3G8 CMD; h3G8 diabody
B1: no binding (tested: 100 nM) (soluble CD32B (sCD32B)); no binding (tested: 100 nM) (sCD32A); no binding (tested: 0.5 µg/ml to 0.001 µg/ml) (sCD32B-Ig). For the same binder, the Kd (soluble CD16A (sCD16A)) was 18 nM.
